Laboratory results taken from paper PMC6068138, “Identification of a 57S translation complex containing closed-loop factors and the 60S ribosome subunit” (Scientific Reports, 2018).
Blank lines part the entries; values can stand above or below the binder they belong to.

Assays:
Settings in all cases: partners not purified
[1] = target: T1, Flag-PAB1 (poly(A)-binding protein) (Saccharomyces cerevisiae, UniProt P04147 1-577); assay: co-IP + AUC; stoichiometric analysis: Flag-PAB1 purified material split and run at the same time by AU-FDS (GFP protein) and AU-A230 (total material); standards STM1-GFP and RPS4B-GFP; values relative to 100 mRNA bound by ribosomes; cells on glucose, 30 °C to 46 °C 1 min, or glucose depleted 10 min and added back 1 min
T1 construct: bait of the one-step Flag pull down; also called PAB1-Flag; source: S. cerevisiae, expressed from plasmid YC776 (Flag-PAB1 URA3), in cell extract
T1 sequence (looked up): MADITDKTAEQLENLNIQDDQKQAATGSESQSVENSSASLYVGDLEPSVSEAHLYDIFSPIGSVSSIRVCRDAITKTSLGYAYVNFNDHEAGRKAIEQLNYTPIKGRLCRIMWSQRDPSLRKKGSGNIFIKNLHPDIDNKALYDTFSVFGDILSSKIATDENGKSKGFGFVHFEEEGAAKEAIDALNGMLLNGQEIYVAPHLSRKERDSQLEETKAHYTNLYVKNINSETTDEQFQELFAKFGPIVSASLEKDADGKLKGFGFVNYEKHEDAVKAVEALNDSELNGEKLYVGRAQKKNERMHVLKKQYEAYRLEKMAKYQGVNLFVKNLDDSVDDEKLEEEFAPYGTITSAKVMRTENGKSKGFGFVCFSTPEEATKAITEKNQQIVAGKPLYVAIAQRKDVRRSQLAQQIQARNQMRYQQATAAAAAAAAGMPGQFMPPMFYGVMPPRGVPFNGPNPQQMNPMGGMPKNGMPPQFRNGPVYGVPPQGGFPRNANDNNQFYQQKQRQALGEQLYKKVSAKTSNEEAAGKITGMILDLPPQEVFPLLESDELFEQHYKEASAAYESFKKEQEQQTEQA

[2] = target: T2, eIF4E-Flag (mRNA cap binding protein) (Saccharomyces cerevisiae, UniProt P07260 1-213); assay: co-IP + AUC; stoichiometric analysis: eIF4E-Flag purified material split and run at the same time by AU-FDS (GFP protein) and AU-A230 (total material); standards STM1-GFP and RPS4B-GFP; values relative to 100 mRNA bound by ribosomes; cells on glucose
T2 construct: bait of the one-step Flag pull down; also called eIF4-Flag; source: S. cerevisiae, expressed from plasmid YC801 (eIF4E-Flag URA3), in cell extract
T2 sequence (looked up): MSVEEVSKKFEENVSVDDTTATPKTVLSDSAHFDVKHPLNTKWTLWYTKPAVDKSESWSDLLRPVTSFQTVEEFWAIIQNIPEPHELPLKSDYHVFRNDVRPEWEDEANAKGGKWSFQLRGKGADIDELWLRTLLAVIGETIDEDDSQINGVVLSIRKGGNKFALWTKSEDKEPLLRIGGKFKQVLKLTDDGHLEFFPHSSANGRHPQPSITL

[3] = target: T1, Flag-PAB1 (poly(A)-binding protein); assay: co-IP + AUC; stoichiometric analysis: Flag-PAB1 purified material split and run at the same time by AU-FDS (GFP protein) and AU-A230 (total material); standards STM1-GFP and RPS4B-GFP; values relative to 100 mRNA bound by ribosomes; cells on glucose, 30 °C to 46 °C 1 min, or glucose depleted 10 min and added back 1 min; remark: listed apart in the source
[4] = target: T1, Flag-PAB1 (poly(A)-binding protein); assay: co-IP + AUC; one-step Flag pull down of Flag-PAB1 from yeast cell extracts (cycloheximide added before lysis); Flag eluate analysed by AU-FDS for the GFP tagged protein, 20 °C, 15,000 rpm; cells on glucose, glucose depleted 10 min, glucose added back 1 min, or 30 °C to 46 °C 1 min
[5] = target: T2, eIF4E-Flag (mRNA cap binding protein); assay: co-IP + AUC; one-step Flag pull down of eIF4E-Flag from yeast cell extracts (cycloheximide added before lysis); Flag eluate analysed by AU-FDS for the GFP tagged protein, 20 °C, 15,000 rpm; cells on glucose or glucose depleted 10 min

fold change of abundance in the 77S complex, glucose depleted 10 min against glucose [4]: 4 fold
fold change of association with the 77S complex, 46 °C 1 min against 30 °C [4]: 2 fold
B2: translation termination factor eRF1 (natural protein, Saccharomyces cerevisiae, UniProt P12385 1-437, looked up)
chain: MDNEVEKNIEIWKVKKLVQSLEKARGNGTSMISLVIPPKGQIPLYQKMLTDEYGTASNIKSRVNRLSVLSAITSTQQKLKLYNTLPKNGLVLYCGDIITEDGKEKKVTFDIEPYKPINTSLYLCDNKFHTEVLSELLQADDKFGFIVMDGQGTLFGSVSGNTRTVLHKFTVDLPKKHGRGGQSALRFARLREEKRHNYVRKVAEVAVQNFITNDKVNVKGLILAGSADFKTDLAKSELFDPRLACKVISIVDVSYGGENGFNQAIELSAEALANVKYVQEKKLLEAYFDEISQDTGKFCYGIDDTLKALDLGAVEKLIVFENLETIRYTFKDAEDNEVIKFAEPEAKDKSFAIDKATGQEMDVVSEEPLIEWLAANYKNFGATLEFITDKSSEGAQFVTGFGGIGAMLRYKVNFEQLVDESEDEYYDEDEGSDYDFI
notes: translation termination factor eRF1, Saccharomyces cerevisiae; source: S. cerevisiae, in cell extract

abundance in the Flag-PAB1 39S complex (30 °C to 46 °C 1 min) [1]: 12 ± 8.1 relative to 100 mRNA
abundance in the Flag-PAB1 39S complex (Glu + − 10 min + 1 min) [1]: 5.3 ± 2.7 relative to 100 mRNA
abundance in the Flag-PAB1 57S complex (30 °C to 46 °C 1 min) [1]: 3.8 ± 2.3 relative to 100 mRNA
abundance in the Flag-PAB1 57S complex (Glu + − 10 min +1 min) [1]: 3.2 ± 0.45 relative to 100 mRNA
abundance in the eIF4E-Flag 39S complex (Glc+) [2]: 29 ± 5.4 relative to 100 mRNA
abundance in the eIF4E-Flag 57S complex (Glc+) [2]: 32 ± 11 relative to 100 mRNA
abundance in the Flag-PAB1 39S complex (Glc+) [3]: 8.3 ± 3.4 relative to 100 mRNA
abundance in the Flag-PAB1 57S complex (Glc+) [3]: 3.5 ± 1.4 relative to 100 mRNA
B4: eIF4G2-GFP (natural protein, Saccharomyces cerevisiae, UniProt P39936 1-914, looked up)
chain: MTDQRGPPPPHPQQANGYKKFPPHDNQYSGANNSQPNNHYNENLYSAREPHNNKQYQSKNGKYGTNKYNNRNNSQGNAQYYNNRFNNGYRLNNNDYNPAMLPGMQWPANYYAPQMYYIPQQMVPVASPPYTHQPLNTNPEPPSTPKTTKIEITTKTGERLNLKKFHEEKKASKGEEKNDGVEQKSKSGTPFEKEATPVLPANEAVKDTLTETSNEKSTSEAENTKRLFLEQVRLRKAAMERKKNGLISETEKKQETSNHDNTDTTKPNSVIESEPIKEAPKPTGEANEVVIDGKSGASVKTPQHVTGSVTKSVTFNEPENESSSQDVDELVKDDDTTEISDTTGGKTVNKSDDETINSVITTEENTVKETEPSTSDIEMPTVSQLLETLGKAQPISDIYEFAYPENVERPDIKYKKPSVKYTYGPTFLLQFKDKLKFRPDPAWVEAVSSKIVIPPHIARNKPKDSGRFGGDFRSPSMRGMDHTSSSRVSSKRRSKRMGDDRRSNRGYTSRKDREKAAEKAEEQAPKEEIAPLVPSANRWIPKSRVKKTEKKLAPDGKTELFDKEEVERKMKSLLNKLTLEMFDSISSEILDIANQSKWEDDGETLKIVIEQIFHKACDEPHWSSMYAQLCGKVVKDLDPNIKDKENEGKNGPKLVLHYLVARCHEEFEKGWADKLPAGEDGNPLEPEMMSDEYYIAAAAKRRGLGLVRFIGYLYCLNLLTGKMMFECFRRLMKDLNNDPSEETLESVIELLNTVGEQFEHDKFVTPQATLEGSVLLDNLFMLLQHIIDGGTISNRIKFKLIDVKELREIKHWNSAKKDAGPKTIQQIHQEEEQLRQKKNSQRSNSRFNNHNQSNSNRYSSNRRNMQNTQRDSFASTKTGSFRNNQRNARKVEEVSQAPRANMFDALMNNDGDSD
notes: eIF4G2, Saccharomyces cerevisiae; also called TIF4632-GFP; source: S. cerevisiae strain RP2384 (TIF4632-GFP::G418), in cell extract

fold change of abundance in the 57S complex, glucose depleted against glucose [5]: 1.8 fold
B6: RPL6B-GFP (natural protein, Saccharomyces cerevisiae, UniProt P05739 1-176, looked up)
chain: MTAQQAPKWYPSEDVAAPKKTRKAVRPQKLRASLVPGTVLILLAGRFRGKRVVYLKHLEDNTLLVTGPFKVNGVPLRRVNARYVIATSTKVSVEGVNVEKFNVEYFAKEKLTKKEKKEANLFPEQQTKEIKTERVEDQKVVDKALLAEIKKTPLLKQYLSASFSLKNGDKPHLLKF
notes: large ribosomal subunit protein RPL6B, Saccharomyces cerevisiae; part of the 60S ribosomal subunit in the extract; source: S. cerevisiae strain carrying the GFP fusion, in cell extract

Further lines, the binder ahead of its results:

B1: eIF4G1, GFP tagged (natural protein, Saccharomyces cerevisiae, UniProt P39935 1-952, looked up)
chain: MTDETAHPTQSASKQESAALKQTGDDQQESQQQRGYTNYNNGSNYTQKKPYNSNRPHQQRGGKFGPNRYNNRGNYNGGGSFRGGHMGANSSNVPWTGYYNNYPVYYQPQQMAAAGSAPANPIPVEEKSPVPTKIEITTKSGEHLDLKEQHKAKLQSQERSTVSPQPESKLKETSDSTSTSTPTPTPSTNDSKASSEENISEAEKTRRNFIEQVKLRKAALEKKRKEQLEGSSGNNNIPMKTTPENVEEKGSDKPEVTEKTKPAEEKSAEPEVKQETPAEEGEQGEKGQIKEESTPKVLTFAERLKLKKQQKEREEKTEGKENKEVPVQEETKSAIESAPVPPSEQVKEETEVAETEQSNIDESATTPAIPTKSDEAEAEVEAEAGDAGTKIGLEAEIETTTDETDDGTNTVSHILNVLKDATPIEDVFSFNYPEGIEGPDIKYKKEHVKYTYGPTFLLQFKDKLNVKADAEWVQSTASKIVIPPGMGRGNRSRDSGRFGNNSSRGHDFRNTSVRNMDDRANSRTSSKRRSKRMNDDRRSNRSYTSRRDRERGSYRNEEKREDDKPKEEVAPLVPSANRWVPKFKSKKTEKKLAPDGKTELLDKDEVERKMKSLLNKLTLEMFDAISSEILAIANISVWETNGETLKAVIEQIFLKACDEPHWSSMYAQLCGKVVKELNPDITDETNEGKTGPKLVLHYLVARCHAEFDKGWTDKLPTNEDGTPLEPEMMSEEYYAAASAKRRGLGLVRFIGFLYRLNLLTGKMMFECFRRLMKDLTDSPSEETLESVVELLNTVGEQFETDSFRTGQATLEGSQLLDSLFGILDNIIQTAKISSRIKFKLIDIKELRHDKNWNSDKKDNGPKTIQQIHEEEERQRQLKNNSRSNSRRTNNSSNRHSFRRDAPPASKDSFITTRTYSQRNSQRAPPPKEEPAAPTSTATNMFSALMGESDDEE
notes: eIF4G1, Saccharomyces cerevisiae; source: S. cerevisiae strain carrying the GFP fusion, in cell extract
abundance in the Flag-PAB1 39S complex (30 °C to 46 °C 1 min) [1]: 7.9 ± 1.7 relative to 100 mRNA
abundance in the Flag-PAB1 39S complex (Glu + − 10 min + 1 min) [1]: 8.8 ± 1.6 relative to 100 mRNA
abundance in the Flag-PAB1 57S complex (30 °C to 46 °C 1 min) [1]: 3 ± 2.2 relative to 100 mRNA
abundance in the Flag-PAB1 57S complex (Glu + − 10 min +1 min) [1]: 5.3 ± 1.1 relative to 100 mRNA
abundance in the eIF4E-Flag 39S complex (Glc+) [2]: 88 ± 12 relative to 100 mRNA
abundance in the eIF4E-Flag 57S complex (Glc+) [2]: 71 ± 8.6 relative to 100 mRNA
abundance in the Flag-PAB1 39S complex (Glc+) [3]: 13 ± 2.3 relative to 100 mRNA
abundance in the Flag-PAB1 57S complex (Glc+) [3]: 6.4 ± 0.91 relative to 100 mRNA

B3: PAB1, GFP tagged (natural protein, Saccharomyces cerevisiae, UniProt P04147 1-577, looked up)
chain: T1 sequence (looked up)
notes: source: S. cerevisiae strain carrying the GFP fusion, in cell extract
abundance in the eIF4E-Flag 39S complex (Glc+) [2]: 42 ± 9.1 relative to 100 mRNA
abundance in the eIF4E-Flag 57S complex (Glc+) [2]: 26 ± 3.7 relative to 100 mRNA

B5: eIF4E, GFP tagged (natural protein, Saccharomyces cerevisiae, UniProt P07260 1-213, looked up)
chain: T2 sequence (looked up)
notes: as for B3
abundance in the Flag-PAB1 39S complex (30 °C to 46 °C 1 min) [1]: 20 ± 2.5 relative to 100 mRNA
abundance in the Flag-PAB1 39S complex (Glu + − 10 min + 1 min) [1]: 14 ± 3.8 relative to 100 mRNA
abundance in the Flag-PAB1 57S complex (30 °C to 46 °C 1 min) [1]: 21 ± 9.4 relative to 100 mRNA
abundance in the Flag-PAB1 57S complex (Glu + − 10 min +1 min) [1]: 5.1 ± 2.1 relative to 100 mRNA
abundance in the Flag-PAB1 39S complex (Glc+) [3]: 28 ± 9.5 relative to 100 mRNA
abundance in the Flag-PAB1 57S complex (Glc+) [3]: 14 ± 2.9 relative to 100 mRNA
